Assay results taken from patent US20100029702A1, “Method For Identification of Compound Having Anti-Anxiety Effect” (priority 2006, published 2010).

Target: T1, ph01207 gene product (Homo sapiens, UniProt O60241, DEL308-362)
T1 construct: oocytes expressing the gene (ph01207 cDNA clones); expressed in transfected cells; host or cells: Xenopus laevis oocytes
T1 sequence (O60241 with tags, fused parts or gaps DEL308-362): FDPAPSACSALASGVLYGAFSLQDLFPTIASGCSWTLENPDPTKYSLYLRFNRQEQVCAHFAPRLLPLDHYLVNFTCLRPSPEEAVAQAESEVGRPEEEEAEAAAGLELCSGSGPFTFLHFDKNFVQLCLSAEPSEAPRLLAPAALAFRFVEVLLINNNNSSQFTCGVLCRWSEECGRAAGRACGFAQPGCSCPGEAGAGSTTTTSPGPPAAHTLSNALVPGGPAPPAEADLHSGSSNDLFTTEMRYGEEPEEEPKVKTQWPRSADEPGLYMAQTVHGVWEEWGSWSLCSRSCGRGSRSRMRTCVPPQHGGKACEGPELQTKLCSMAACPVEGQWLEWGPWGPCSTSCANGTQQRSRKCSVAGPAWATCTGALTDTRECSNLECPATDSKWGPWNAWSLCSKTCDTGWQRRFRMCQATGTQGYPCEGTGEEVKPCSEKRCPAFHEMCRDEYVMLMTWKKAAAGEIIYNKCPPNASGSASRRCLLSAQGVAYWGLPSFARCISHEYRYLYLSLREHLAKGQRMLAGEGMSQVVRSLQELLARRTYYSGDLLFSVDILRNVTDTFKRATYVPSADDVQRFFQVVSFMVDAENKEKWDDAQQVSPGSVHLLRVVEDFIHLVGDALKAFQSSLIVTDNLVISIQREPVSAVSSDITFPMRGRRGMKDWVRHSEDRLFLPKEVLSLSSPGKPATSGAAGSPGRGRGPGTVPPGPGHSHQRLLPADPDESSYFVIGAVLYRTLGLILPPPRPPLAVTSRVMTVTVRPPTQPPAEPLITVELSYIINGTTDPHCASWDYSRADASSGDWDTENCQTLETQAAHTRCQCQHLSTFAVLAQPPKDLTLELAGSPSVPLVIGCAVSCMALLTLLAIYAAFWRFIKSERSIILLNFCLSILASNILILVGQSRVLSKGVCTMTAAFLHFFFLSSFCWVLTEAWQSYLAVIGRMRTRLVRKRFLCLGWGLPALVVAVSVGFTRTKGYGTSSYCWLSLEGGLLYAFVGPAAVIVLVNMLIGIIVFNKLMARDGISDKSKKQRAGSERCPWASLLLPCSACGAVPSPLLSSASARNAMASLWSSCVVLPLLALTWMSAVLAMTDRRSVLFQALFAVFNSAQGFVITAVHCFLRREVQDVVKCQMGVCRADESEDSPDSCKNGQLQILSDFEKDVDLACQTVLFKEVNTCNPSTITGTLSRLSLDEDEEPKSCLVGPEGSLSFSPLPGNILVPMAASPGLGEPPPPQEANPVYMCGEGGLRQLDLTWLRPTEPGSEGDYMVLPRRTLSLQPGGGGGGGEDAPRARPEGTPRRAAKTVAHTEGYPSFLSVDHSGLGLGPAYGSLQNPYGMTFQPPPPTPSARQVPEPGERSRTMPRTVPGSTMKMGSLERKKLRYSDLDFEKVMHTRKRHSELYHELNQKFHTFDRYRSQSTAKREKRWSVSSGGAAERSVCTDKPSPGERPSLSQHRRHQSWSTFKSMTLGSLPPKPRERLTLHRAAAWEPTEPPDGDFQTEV
Assay: Intracellular calcium concentration change assay with ph01207#3F8-17 strain: inhibition of the response to CCK-8S
Assay type: cell-based
Conditions: 10 nM CCK-8S, wells with buffer
Text: A compound that inhibits a response of the ph01207 gene product to a ligand was identified by an intracellular calcium concentration change assay system using the ph01207-expressing cell strain.
The ph01207-expressing cell strain was constructed as follows. First, a ph01207-expressing vector not containing an epitope tag was constructed by recombination between a ph01207 cDNA clone identified in Example 1 and pcDNA3.1 (Invitrogen) with Asp718I (Boehringer) and NotI (TAKARA). The ph01207-expressing vector was transfected into the CHO-K1 strain, a host cell, using Lipofectamine 2000 (Invitrogen), and the cells were screened for stably-expressing strains by a selective medium containing G418. Expression of the gene introduced into the cell was detected by the FCM analysis using an anti-ph01207 antibody.
As a result, a plurality of cell strains stably expressing ph01207 were obtained. A compound was identified using the ph01207#3F8-17 strain, a clone of these strains.
As a ligand, CCK-8S (Peptide Institute, Inc.) was used. […]
Compounds were specifically identified as follows. […] After reaction, CCK-8S (Peptide Institute, Inc.) and a compound was added, and changes over time in the fluorescence intensity in each well were measured for 80 sec. […] Changes over time in the fluorescence intensity were measured using the FLEX station (Molecular Device).

Substance: cholecystokinin octapeptide sulfated form [CCK-8S]
- Change in fluorescence intensity (intracellular Ca2+) after addition of CCK-8S: increased
